What was measured:
[1] = target: recombinant full-length H. sapiens CCR4–NOT deadenylase complex (human)
[2] = target: recombinant full-length H. sapiens CCR4–NOT deadenylase complex (human); remark: listed apart in the source
[3] = target: Schizosaccharomyces pombe Ccr4–Not complex with an FITC label on the Not9 subunit (S. pombe) (UniProt P87112); experiment: fluorescence polarisation; fluorescence anisotropy; Puf3 constructs titrated into 25 nM Ccr4–Not with FITC on Not9; 20 mM HEPES pH 8, 100 mM NaCl, 0.5 mM TCEP; quadratic fit; apparent KD
[4] = target: Schizosaccharomyces pombe Ccr4–Not complex, full-length, unlabeled (Not1, Not2, Not3, Not4, Not9, Ccr4, Caf1) (S. pombe) (UniProt P87112)
[5] = target: Schizosaccharomyces pombe Ccr4–Not complex with an FITC label on the Not9 subunit (S. pombe, UniProt P87112 1-2100; P87240 1-306; O13870 1-640; Q92368 1-283; O74874 1-690; O74856 …, fluorescein (FITC label) from a CoA–fluorescein conjugate on the YbbR tag at the N terminus); experiment: FP; apparent

Molecule “PUM1^Δ587 (from UniProt Q14671 588-1186) (domain or fragment)” has a fold decrease in stimulation of deadenylation by human CCR4–NOT (in vitro targeted deadenylation assay) [1] of 4 fold and a stimulation of removal of the poly(A) tail by human CCR4–NOT [2] of 10 fold.

“Puf3 variant with residues 53–68 and 217–232 both replaced with a GSN linker (from UniProt O94462 1-52; O94462 69-216; O94462 233-732) (natural protein)” gave a Kd [3] of 10000 nM.

B1: Puf3 residues 109–258, GST–lipoyl tag fusion with no PUM domain (domain or fragment)
chain: SANHHGNPFPNGKQSIKAMPSLVNLQEDSVISKFPNSLEVPFRKRSESTSSSLSGLHSDLRPLKTELYGQLNSECGARFPQTLKSPLTPIGGDSARTVSASTARTSDKFFPRHTRAHSDFWIPATSKPSRHASHSSIGDLTTITQSSISS
For B1, the Kd [3] was 800 nM.

B2: Puf3 residues 158–258, GST–lipoyl tag fusion with no PUM domain (domain or fragment)
chain: SSSLSGLHSDLRPLKTELYGQLNSECGARFPQTLKSPLTPIGGDSARTVSASTARTSDKFFPRHTRAHSDFWIPATSKPSRHASHSSIGDLTTITQSSISS
Work on B2 yielded a Kd [3] of 7000 nM.

B3: Puf3 variant with residues 53–68 replaced with a GSN linker (natural protein)
chain: MFTAVNSNPNASESISGNSAFNFPSAPVSSLDTNNYGQRRPSLLSGTSPTSSSNKQASLESPVSYSNPIPSLTWLSLDGDSPDSLVSTPTAPSANHHGNPFPNGKQSIKAMPSLVNLQEDSVISKFPNSLEVPFRKRSESTSSSLSGLHSDLRPLKTELYGQLNSECGARFPQTLKSPLTPIGGDSARTVSASTARTSDKFFPRHTRAHSDFWIPATSKPSRHASHSSIGDLTTITQSSISSGSGSFKPSWDGSFDSSLMAHQSYGTSPAFANGNSPTLKNDSSFFGSASVRPTVSPIGTSFRQSLPDISAFGIPKTETNPSEVVAPGTIPISVLPTSNFSAATPANPSLINQNGQEFLQQSRVLYLFHANKQRHFELSDILGNVVLFSTDQHGSRFIQQKLATATEEEREAVFQEIASTSCLQLMMDIFGNYVVQKYFEFGNEKQKQILLSQIKGHVFSLSLQMYGCRVVQKAIEYISPEHQVQLIQELDGHVLDCVCDQNGNHVIQKAIECIDTGHLQFILRALRPQIHVLSAHPYGCRVIQRAIEHCHSERKLIIEELLPHILKLTQDQYGNYVVQHILRTGSESDKKYIFDLMIDHLLFLSCHKFASNVVERCISYISDVDRRRILNKIISEKAENCSILMLMMKDKYANYVIQKLLDASPEEERDLLISYIYPHISVLKKFTYGKHLIMSVERFRQKSISAVPKLASKECK
In the case of B3, the fold decrease in stimulation of Ccr4–Not-mediated deadenylation (in vitro targeted deadenylation assay, t1/2) [4] is reported as 2 fold and the Kd [5] is reported as 290 nM.

B4: 1-158 (protein)
chain: MFTAVNSNPNASESISGNSAFNFPSAPVSSLDTNNYGQRRPSLLSGTSPTSSFFNSSMISSNYTFPHGSNKQASLESPVSYSNPIPSLTWLSLDGDSPDSLVSTPTAPSANHHGNPFPNGKQSIKAMPSLVNLQEDSVISKFPNSLEVPFRKRSESTSQSRVLYLFHANKQRHFELSDILGNVVLFSTDQHGSRFIQQKLATATEEEREAVFQEIASTSCLQLMMDIFGNYVVQKYFEFGNEKQKQILLSQIKGHVFSLSLQMYGCRVVQKAIEYISPEHQVQLIQELDGHVLDCVCDQNGNHVIQKAIECIDTGHLQFILRALRPQIHVLSAHPYGCRVIQRAIEHCHSERKLIIEELLPHILKLTQDQYGNYVVQHILRTGSESDKKYIFDLMIDHLLFLSCHKFASNVVERCISYISDVDRRRILNKIISEKAENCSILMLMMKDKYANYVIQKLLDASPEEERDLLISYIYPHISVLKKFTYGKHLIMSVERFRQKSISAVPKLASKECK
B4 was tested, and the Kd [5] was about 10000 nM.

B5: Puf3 construct spanning residues 109–208 (anisotropy) (domain or fragment)
chain: SANHHGNPFPNGKQSIKAMPSLVNLQEDSVISKFPNSLEVPFRKRSESTSSSLSGLHSDLRPLKTELYGQLNSECGARFPQTLKSPLTPIGGDSARTVSA
For B5, the Kd [5] was over 40000 nM and the Kd [3] was over 50000 nM.

B6: Puf3 variant with residues 217–232 replaced with a GSN linker (natural protein)
chain: MFTAVNSNPNASESISGNSAFNFPSAPVSSLDTNNYGQRRPSLLSGTSPTSSFFNSSMISSNYTFPHGSNKQASLESPVSYSNPIPSLTWLSLDGDSPDSLVSTPTAPSANHHGNPFPNGKQSIKAMPSLVNLQEDSVISKFPNSLEVPFRKRSESTSSSLSGLHSDLRPLKTELYGQLNSECGARFPQTLKSPLTPIGGDSARTVSASTARTSDKTSKPSRHASHSSIGDLTTITQSSISSGSGSFKPSWDGSFDSSLMAHQSYGTSPAFANGNSPTLKNDSSFFGSASVRPTVSPIGTSFRQSLPDISAFGIPKTETNPSEVVAPGTIPISVLPTSNFSAATPANPSLINQNGQEFLQQSRVLYLFHANKQRHFELSDILGNVVLFSTDQHGSRFIQQKLATATEEEREAVFQEIASTSCLQLMMDIFGNYVVQKYFEFGNEKQKQILLSQIKGHVFSLSLQMYGCRVVQKAIEYISPEHQVQLIQELDGHVLDCVCDQNGNHVIQKAIECIDTGHLQFILRALRPQIHVLSAHPYGCRVIQRAIEHCHSERKLIIEELLPHILKLTQDQYGNYVVQHILRTGSESDKKYIFDLMIDHLLFLSCHKFASNVVERCISYISDVDRRRILNKIISEKAENCSILMLMMKDKYANYVIQKLLDASPEEERDLLISYIYPHISVLKKFTYGKHLIMSVERFRQKSISAVPKLASKECK
B6 was tested, and the stimulation of Ccr4–Not-mediated deadenylation (in vitro targeted deadenylation assay, t1/2) [4] was 2 fold and the Kd [5] was 420 nM.

B7: MBP-tagged full-length S. pombe Puf3 (natural protein)
chain: MFTAVNSNPNASESISGNSAFNFPSAPVSSLDTNNYGQRRPSLLSGTSPTSSFFNSSMISSNYTFPHGSNKQASLESPVSYSNPIPSLTWLSLDGDSPDSLVSTPTAPSANHHGNPFPNGKQSIKAMPSLVNLQEDSVISKFPNSLEVPFRKRSESTSSSLSGLHSDLRPLKTELYGQLNSECGARFPQTLKSPLTPIGGDSARTVSASTARTSDKFFPRHTRAHSDFWIPATSKPSRHASHSSIGDLTTITQSSISSGSGSFKPSWDGSFDSSLMAHQSYGTSPAFANGNSPTLKNDSSFFGSASVRPTVSPIGTSFRQSLPDISAFGIPKTETNPSEVVAPGTIPISVLPTSNFSAATPANPSLINQNGQEFLQQSRVLYLFHANKQRHFELSDILGNVVLFSTDQHGSRFIQQKLATATEEEREAVFQEIASTSCLQLMMDIFGNYVVQKYFEFGNEKQKQILLSQIKGHVFSLSLQMYGCRVVQKAIEYISPEHQVQLIQELDGHVLDCVCDQNGNHVIQKAIECIDTGHLQFILRALRPQIHVLSAHPYGCRVIQRAIEHCHSERKLIIEELLPHILKLTQDQYGNYVVQHILRTGSESDKKYIFDLMIDHLLFLSCHKFASNVVERCISYISDVDRRRILNKIISEKAENCSILMLMMKDKYANYVIQKLLDASPEEERDLLISYIYPHISVLKKFTYGKHLIMSVERFRQKSISAVPKLASKECK
With B7 the Kd [5] was 160 nM and the Kd [3] was 100 nM.

From paper PMC12819147 (2025)
